29 substances from patent US20240368668A1, “SUBSTRATES AND BIOMARKERS OF ADAMTS7” (The Broad Institute, Inc., priority 2021, published 2024) can be followed below.

Square brackets hold non-standard residues; d marks the D form. Ends that are not written are not given here.

One test concerns the target T1, mouse ADAMTS7 (Mus musculus, UniProt Q68SA9).
T1 construct: Full-length mouse Adamts7 1-1857 (Uniprot Q68SA9, WT or E373Q catalytic mutant); expressed in transfected cells; host or cells: Human Coronary Artery Smooth Muscle Cells (HCA-SMC, Lonza), adenovirus 50 MOI
T1 sequence (Q68SA9 221-1657): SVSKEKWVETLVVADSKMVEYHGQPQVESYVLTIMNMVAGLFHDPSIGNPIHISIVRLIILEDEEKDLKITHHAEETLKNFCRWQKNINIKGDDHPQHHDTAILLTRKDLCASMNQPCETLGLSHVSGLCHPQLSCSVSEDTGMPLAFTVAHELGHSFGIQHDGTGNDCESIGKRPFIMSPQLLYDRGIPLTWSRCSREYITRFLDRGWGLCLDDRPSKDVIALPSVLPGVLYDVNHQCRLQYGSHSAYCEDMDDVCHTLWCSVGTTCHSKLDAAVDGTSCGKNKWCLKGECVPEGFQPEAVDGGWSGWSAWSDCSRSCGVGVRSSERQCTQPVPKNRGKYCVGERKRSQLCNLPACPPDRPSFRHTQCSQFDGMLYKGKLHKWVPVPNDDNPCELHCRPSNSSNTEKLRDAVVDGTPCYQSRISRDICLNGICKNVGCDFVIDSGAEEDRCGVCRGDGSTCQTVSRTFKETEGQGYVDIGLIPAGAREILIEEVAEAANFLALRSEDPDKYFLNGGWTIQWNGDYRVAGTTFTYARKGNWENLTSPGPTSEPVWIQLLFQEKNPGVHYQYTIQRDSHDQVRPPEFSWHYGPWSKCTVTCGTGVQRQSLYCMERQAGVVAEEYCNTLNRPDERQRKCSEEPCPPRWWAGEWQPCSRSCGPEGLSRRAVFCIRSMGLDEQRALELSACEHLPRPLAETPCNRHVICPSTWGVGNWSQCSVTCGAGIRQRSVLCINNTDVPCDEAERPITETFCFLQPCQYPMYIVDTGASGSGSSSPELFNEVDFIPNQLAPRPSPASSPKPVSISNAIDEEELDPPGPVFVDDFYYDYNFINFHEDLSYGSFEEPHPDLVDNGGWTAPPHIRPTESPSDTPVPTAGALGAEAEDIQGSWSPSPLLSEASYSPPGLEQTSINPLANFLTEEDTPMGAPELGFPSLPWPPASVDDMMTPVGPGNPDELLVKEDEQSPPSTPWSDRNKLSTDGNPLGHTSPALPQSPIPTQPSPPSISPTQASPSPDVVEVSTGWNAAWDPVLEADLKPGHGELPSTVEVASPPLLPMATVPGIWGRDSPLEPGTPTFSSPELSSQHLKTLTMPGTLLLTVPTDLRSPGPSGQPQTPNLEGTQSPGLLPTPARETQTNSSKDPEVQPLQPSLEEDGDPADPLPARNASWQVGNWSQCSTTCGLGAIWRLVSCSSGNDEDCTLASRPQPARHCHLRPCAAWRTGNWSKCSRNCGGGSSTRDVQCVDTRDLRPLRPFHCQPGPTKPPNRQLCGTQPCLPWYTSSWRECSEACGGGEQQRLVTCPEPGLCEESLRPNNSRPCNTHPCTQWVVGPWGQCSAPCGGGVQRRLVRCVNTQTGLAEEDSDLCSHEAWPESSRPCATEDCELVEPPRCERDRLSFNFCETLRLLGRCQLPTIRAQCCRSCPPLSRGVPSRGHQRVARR
Description: TMT10 TAILS N-terminomics, SMC2 experiment (process replicates, trypsin/AspN digest). Type of test: cell-based. Conditions: SMC2_TAILS HC; log fold change of N-terminal peptide, Ad-mADAMTS7 WT over Luc. An excerpt:
ADAMTS7 Expression, Cell Culture and Preparation of the Secreted Proteins—Full-length mouse Adamts7 1-1857 (Uniprot Q68SA9, WT or E373Q catalytic mutant) with a carboxyl terminal 3xFLAG tag was used to generate custom adenoviruses as previously described. Adeno-CMV-Luciferase (Ad-Luc) from Vector Biolabs was used as a negative control. Human Coronary Artery Smooth Muscle Cells (HCA-SMC) were obtained from Lonza and expanded in Lonza SmGM-2 media in 15 cm tissue culture plates. Twenty-four hours before media collection, near confluent plates were transduced with 50 MOI adenovirus and switched to Lonza Basal SM media with volumes of 20 ml per 15 cm plate. Expression of the Flag tagged ADAMTS7 was confirmed from the media using western blot and detected using the anti-Flag M2-HRP antibody (Sigma, A8592). Collected media was processed by adding protease inhibitors (1 mM EDTA and 1 mM PMSF) and clarified by 500 g×5 min spin at 4 C to pellet cell debris. Cell media supernatants were then passed through a 0.22 um filter and kept chilled. Processed media was then concentrated 50-100× using 3 kDa Centricon Plus-70 filter unit, spun at 3,500 g×60 min at 4 C. Approximately 10% of the processed, concentrated media was set aside for total secretome proteolytic analysis. The remaining 90% of the processed, concentrated media was buffer exchanged into 50 mM HEPES pH 8.0, 150 mM NaCl (2×50 ml) using the 3 kDa Centricon Plus-70 filter unit and concentrated to >2 mg/ml to serve as input for the TAILS experiment. Secretome and TAILS input samples were stored at −80° C.
For the first experiment, referred to as SMC1, 120 ml of media from 6×15 cm dishes was pooled from each condition (Luc, WT, EQ) and processed to produce three separate inputs for the TAILS experiment. Luc, WT and EQ inputs from the SMC1 experiment were each divided into triplicate 400 ug samples to generate technical replicate TAILS data. For the second experiment, referred to as SMC2, media was processed separately in triplicate for each condition (Luc1, Luc2, Luc3, WT1, WT2, WT3, EQ1, EQ2, EQ3) using 60 ml of media from 3×15 cm dishes for each process replicate. Inputs from the SMC2 experiment used process replicates of 300 ug each to generate TAILS data. The third experiment used input from cultured Human umbilical vein endothelial cells (HUVEC) from Lifeline Cell Technology grown in VascuLife Media and transduced in Lifeline Basal EC (+bFGF2 10 ng/ml). The HUVEC experiment used the same strategy as the SMC2 experiment, with 40 ml of media from 2×15 cm dishes for each process replicate and used 200 ug each to generate TAILS data. Inputs for process replicate experiments were restricted to the lowest concentration from the 9 parallel samples for SMC2 or HUVEC.
TMT10 isotopic labeling and negative selection of non-labeled peptides-Sample preparation was performed based on the TAILS protocol from the Overall lab with some modifications. From a single experiment, nine parallel protein samples in 50 mM HEPES pH 8.0, 150 mM NaCl were separately denatured with guanidinium chloride (Sigma, G4505) to reach a final concentration of 2.5M guanidinium chloride and 250 mM HEPES and incubated at 65° C. for 15 min. Reduction was achieved through addition of tris(2-carboxylethyl) phosphine (TCEP) at a final concentration of […] and incubated at 65° C. for 45 min. Alkylation reaction was performed with addition of iodoacetamide (IAA, Sigma, A3221) to a final concentration of 10 mM IAA for 15 min at room temperature in the dark. Following denaturation, reduction and alkylation steps, ten percent of each of the nine parallel protein samples was removed and combined to serve as a pooled reference. Isobaric tags were added to free amine groups using the TMT10plex Isobaric Mass Tagging Kit (ThermoFisher, 90113) with TMT channels randomly assigned to the nine samples and TMT 131 assigned to the pooled reference. […]
Regarding “LOXL1_219 (VASAGVIYPYQPR; listed as Homo sapiens)”, the logFC.mWT.over.Luc is 1.56. “LOXL2_37 (FQQPAPEYHQPQAPANVAKIQLR; listed as Homo sapiens)” gave a logFC.mWT.over.Luc of 3.27. Still for that read-out and setting: the same measure for “LOXL2_38 ([code q]QPAPEYHQPQAPANVAKIQLR; not fully specified; listed as Homo sapiens)”: 1.74; for “LTBP1_393 (LTATNFR; listed as Homo sapiens)”: 6.60. “LTBP1_540 (HQQVIPHVYPVAAKTQLGR; listed as Homo sapiens)” had a logFC.mWT.over.Luc of 1.82.

Staying with this test, now noted: SMC2_TAILS HC; log fold change, mWT over Luc.
For “AEBP1_37 (FLEGFLSELEPEPR; listed as Homo sapiens)”, the logFC.mWT.over.Luc stood at 3.21. For “CCDC80_66 (LEEPNLQPLQR; listed as Homo sapiens)”, the logFC.mWT.over.Luc amounted to 2.08. Turning to “EFEMP1_124 (AVAGPEMQTGR; listed as Homo sapiens)”, the logFC.mWT.over.Luc was determined as 2.81. In the case of “EFEMP1_125 (VAGPEMQTGR; listed as Homo sapiens)”, the logFC.mWT.over.Luc was determined as 1.43. “FBLN2_259 (ALGPPAPVQAKAR; listed as Homo sapiens)” yielded a logFC.mWT.over.Luc of 1.61. As for “FBLN2_260 (LGPPAPVQAKAR; listed as Homo sapiens)”, the logFC.mWT.over.Luc was found to be 1.98. Still for that read-out and setting: the same measure for “FBN1_29 (LEAGNVKETR; listed as Homo sapiens)”: 3.33; for “FBN1_53 (LKGPNVCGSR; listed as Homo sapiens)”: 4.64; for “FLNA_1285 (LTQTGGPHVKAR; listed as Homo sapiens)”: 4.37. “FN1_36 (MVQPQSPVAVSQSKPGCYDNGKHYQINQQWER; listed as Homo sapiens)”: the logFC.mWT.over.Luc was 3.59.

The substance “FN1_40 (QSPVAVSQSKPGCYDNGKHYQINQQWER; listed as Homo sapiens)” returned a logFC.mWT.over.Luc of 2.60.

In the case of “FN1_1143 (LTPGVEYVYTIQVLR; listed as Homo sapiens)”, the logFC.mWT.over.Luc is 2.31. Take “FN1_1656 (SSSPVTGYR; listed as Homo sapiens)”: the logFC.mWT.over.Luc worked out at 1.20. “GSN_413 (HIANVER; listed as Homo sapiens)” came in with a logFC.mWT.over.Luc of 1.91. Substance “HSPG2_275 (LLPGSVR; listed as Homo sapiens)” had a logFC.mWT.over.Luc of 1.74. Substance “HSPG2_2331 (ANLAYPAGSTQPIR; listed as Homo sapiens)” returned a logFC.mWT.over.Luc of 1.72. The substance “HSPG2_2333 (LAYPAGSTQPIR; listed as Homo sapiens)” yielded a logFC.mWT.over.Luc of 1.19. Take “IGFBP3_31 (SAGLGPVVR; listed as Homo sapiens)”: the logFC.mWT.over.Luc is listed as 2.12. As for “IGFBP3_32 (AGLGPVVR; listed as Homo sapiens)”, the logFC.mWT.over.Luc was 4.68. “IGFBP7_101 (AAGGPGVSGVCVCKSR; listed as Homo sapiens)” displayed a logFC.mWT.over.Luc of 2.53. Take “LOX_58 (LSLGSQYQPQR; listed as Homo sapiens)”: the logFC.mWT.over.Luc was 1.68. In the case of “LOX_123 (HWFQAGYSTSR; listed as Homo sapiens)”, the logFC.mWT.over.Luc was determined as 1.37. Substance “LOX_124 (WFQAGYSTSR; listed as Homo sapiens)” had a logFC.mWT.over.Luc of 3.35.

In turn, “LOX_126 (QAGYSTSR; listed as Homo sapiens)” came in with a logFC.mWT.over.Luc of 2.77.
